Experimental data taken from paper PMC4454188.

How the values were obtained:
[1] = target: DotIC, C-terminal periplasmic domain of DotI (residues 73-212) (L. pneumophila); assay: crystal structure
[2] = target: DotIC, C-terminal periplasmic domain of DotI (residues 73-212) (L. pneumophila); assay: SEC-MALS
[3] = target: His-TraM (R64 TraM, full length) (plasmid R64); assay: SEC-MALS
[4] = target: Strep-3xFLAG-DotJ (E. coli) (L. pneumophila); assay: SEC

**Q.** With “DotIC, C-terminal periplasmic domain of DotI (residues 73-212) (domain or fragment)” as the substance, how does the stoichiometry N (subunits in a ring (two rings stacked)) [1] read?
**A.** The stoichiometry N (subunits in a ring (two rings stacked)) was 8.

**Q.** What about the stoichiometry N [2] of the same substance?
**A.** Its stoichiometry N is 16.

**Q.** Which stoichiometry N [3] does the source give for “His-TraM (R64 TraM, full length) (natural protein)” here?
**A.** Its stoichiometry N is 6.

**Q.** “DotI (produced in E. coli with Strep-3xFLAG-DotJ) (natural protein)” was tested. Which stoichiometry N (DotI per DotJ) [4] did it give?
**A.** Its stoichiometry N (DotI per DotJ) is 1.87.
